{"source": "patent US9744212B2", "about": "“Galectin-3C combination therapy for human cancer” (Texas Tech University System, priority 2011, dated 2017)", "molecules": {"B1": {"name": "Gal-3C: N-terminally truncated human galectin-3 consisting of 143 carboxy-terminal amino acid residues, SEQ ID NO: 1 (protein)", "chain": "GAPAGPLIVPYNLPLPGGVVPRMLITILGTVKPNANRIALDFQRGNDVAFHFNPRFNENNRRVIVCNTKLDNNWGREERQSVFPFESGKPFKIQVLVEPDHFKVAVNDAHLLQYNHRVKKLNEISKLGISGDIDITSASYTMI"}}, "key": {"VEGF": {"test_system": "VEGF", "assay": "ELISA of VEGF in U266 cell-conditioned medium", "format": "cell-based, human", "conditions": "48-hour culture with 10 μg/mL Gal-3C, 5 nM Bor or both", "experimental": "ELISA of VEGF and bFGF Levels. The levels of VEGF and bFGF were measured by direct ELISA as follows. Flat-bottom 96-well polycarbonate plates were coated at 4° C. with 50 μL/well cell culture supernatants diluted 1:25 in carbonate coating buffer (0.1 M NaHCO3, […]) at 4° C. overnight. Standard curves were obtained with purified recombinant human VEGF and bFGF (both from R&D Systems) serially diluted in coating buffer (10-fold serial dilutions from 1,000 to 0 ng/mL). After removing diluted supernatants or standards, and blocking with PBS supplemented with 1% W/V BSA for 1 hour at room temperature, plates were incubated for 1 hour at room temperature with mouse anti-human VEGF or rabbit anti-human bFGF primary antibodies (2 μg/mL in PBS, 50 μL/well Abeam, Mass., USA). Then, plates were washed twice with PBS with 0.025% V/V Tween-20 (300 μL/well) and incubated at room temperature with anti-mouse or anti-rabbit HRP-labeled secondary antibodies (0.2 μg/mL in PBS, 50 μL/well Abeam, Mass., USA) for 1 hour. The plates were washed thrice with PBS containing 0.025% V/V Tween-20 (300 μL/well), the TMB colorimetric substrate (Thermo Fisher Scientific, Waltham, Mass., USA) was added, and after 5 minutes the absorbance was measured (0.1 s) at 450 nm on a Victor 2 multimodal microplate reader (PerkinElmer, Billerica, Mass., USA). All samples were run in triplicates. […]"}, "[1]": {"test_system": "MM cell lines (ARP-1, ARK-B, U266, 8226/Dox, MM-1S, MM-RL, NCI-H929, RMPI-8266)", "assay": "Cell proliferation (viability) assays of MM cell lines", "format": "cell-based, human", "conditions": "all eight cell lines, at one or more concentrations (0.5, 1, 2 or 4 μg/ml); 48 hours; P<0.05; magnitude slight", "experimental": "EXAMPLE 3 illustrates Gal-3C inhibits proliferation of MM cells. Cell Proliferation (Viability) Assays. Cell proliferation was assessed with a ViaLight Plus Cell Proliferation and Cytotoxicity BioAssay Kit (Lonza, Walkersville, Md., USA) according to the directions of the manufacturer. In brief, myeloma cells were seeded (8,000 per well) in 50 μL of RPMI-1640 with 10% heat-inactivated FBS (growth medium) in 96-well plates. HUVEC cells were seeded (10,000/well) in 50 μl EGM-2 medium in 96-well plates. Gal-3C (2× concentration) in 50 μL of growth medium was added to triplicate wells and the plate kept at the CO2 incubator at 37° C. for 48 hour. For the ViaLight assay, 50 μL of lysis buffer was added to each well, the plate was incubated for 10 minutes, after which 50 μL of cell lysate from each well was transferred to a solid white Lumitrac-200 plate and 50 μL of reconstituted AMR Plus was added. Luminescence was measured with a 1-s integrated setting in a Berthold luminometer after 2 minutes. […] Fluorescence intensity was measured at 590-nm on a Polarstar Galaxy (BMG Labtech, Cary, N.C.) microplate reader. The blank (growth media with 10 μl Alamar Blue) was subtracted from the raw fluorescence to obtain adjusted fluorescence readings. Triplicate data points were analyzed and the data shown are representative of 3 or more studies. […]"}, "[2]": {"test_system": "NF-kB (serine 529 phosphorylated p65 subunit)", "assay": "Quantification of NF-kappaB activation by flow cytometry in U266 cells", "format": "cell-based, human", "conditions": "48 hours", "experimental": "Quantification of NF-kappaB Activation by Flow Cytometry. For measurement of NF-kB activation, 200×10^3 cells were fixed with 2% PFA in ice-cold PBS for 30 minutes. After removal of PFA, cells were permeabilized with 0.3% saponin in PBS on ice for 15 minutes, then washed and resuspended in 50 μL PBS supplemented with 1% BSA. PE-labeled anti-phosphorylated serine 529 p65 antibody (BD Biosciences, San Jose, Calif., USA) or isotype control (final dilution, 1:20) and allowed to incubate on ice in the dark for 30 minutes. Before flow-cytometric analysis cells were washed 3 times in 1-mL cold PBS with 1% BSA.\nFIG. 8A is a dot-plot of NF-kB activation in U266 cells. After 48 hours in the presence of indicated treatments, the levels of active NF-KB (serine 529 phosphorylated p65 subunit) were evaluated in U266 cells by flow cytometry."}, "[3]": {"test_system": "GFP-expressing HUVECs in U266 tumors", "assay": "Pilot study of in vivo angiogenesis inhibition (GFP-HUVEC plus U266 in Matrigel, nude mice)", "design": "species or system mouse", "experimental": "Pilot study of in vivo angiogenesis inhibition by Gal-3C. To determine the ability of Gal-3C to inhibit angiogenesis in vivo, 106 HUVECs infected with GFP-expressing rAAV vectors and 107 U266 MM cells were mixed together and suspended in 300 μL Matrigel. The cell mixture was injected subcutaneously into 6 nude mice and allowed to grow for two weeks. Three days after tumor administration, the mice were divided into two groups and one group was implanted with osmotic mini-pumps and treated with Gal-3C as in the study describe above. After 2 weeks, mice were sacrificed, pictures were taken, and the GFP-expressing cells in tumor masses were analyzed by flow cytometry.\nThe ability of Gal-3C to inhibit angiogenesis in vivo was determined in a pilot study. Six mice were injected with […] HUVECs and 107 U266 MM cells suspended in Matrigel and divided into two groups after two weeks. One group of 3 mice was implanted with osmotic mini-pumps and treated with Gal-3C as described above."}}}
{"molecule": "B1", "values": [{"measurement": "VEGF levels in U266 conditioned medium", "setting": "VEGF", "result": "significantly reduced"}, {"measurement": "proliferation of MM cells", "setting": "[1]", "result": "significantly inhibited"}, {"measurement": "NF-kB activation (phosphorylated active form)", "setting": "[2]", "result": "did not have a significant effect"}, {"measurement": "mean fluorescence intensity (MFI) of cells from tumor masses", "setting": "[3]; GFP-expressing HUVEC, FACS, controls 19.24", "result": 9.4, "unit": "MFI"}, {"measurement": "reduction of the number of endothelial cells in the tumors", "setting": "[3]; compared to control mice", "result": 48, "unit": "%"}, {"measurement": "GFP-expressing HUVECs as share of the cells in tumor masses", "setting": "[3]; controls 89.3%", "result": 46.2, "unit": "%"}, {"measurement": "subcutaneous vascularization near tumors", "setting": "[3]; image analyses of nude mice", "result": "markedly reduced"}, {"measurement": "tumor size (white circles, representative mouse)", "setting": "[3]; nude mice, control 7 mm", "result": 3, "unit": "mm"}]}
